Residue numbers refer to the chain shown, from its start.
T1: phospholipase A2 (PLA2) (Homo sapiens (Human), UniProt O15496 43-165)
T1 sequence: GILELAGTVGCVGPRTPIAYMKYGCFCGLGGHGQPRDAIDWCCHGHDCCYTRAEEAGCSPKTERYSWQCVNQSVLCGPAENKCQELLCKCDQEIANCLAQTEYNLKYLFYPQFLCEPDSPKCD

B1: anti-PLA2 mAb 1.18 (antibody, IgG2, V domains shown)
VH: EVQLVQSGAEVKKPGESLKISCKGSGYSFTNYWINWVRQMPGKGLEWMGIIYPGDSDTRYSPSFQGQVTISADKSISTAYLQWSSLKASDTAMYYCARHRLGFDYWGQGTLVTVSS
VL: DIQMTQSPSSLSASVGDRVTITCRASQGIRNDLDWCQQKPGKAPKRLIYAASSLQSGVPSRFSGSGSGTEFTLTISSLQPEDFATYYCLQHNNYPPTFGQGTKVEIKR
B2: anti-PLA2 mAb 2.15 (antibody, IgG4, V domains shown)
VH: QVQLVESGGGVVQPGRSLRLSCAASGFTFSSYGMHWVRQAPGKGLEWVAVIWYDGSNKYYADSVKGRFTISRDNSKNTLYLQMNSLRAEDTAVYYCARRDWNYAFDIWGQGTMVTVSS
VL: DIQMTQSPSSLSASVGDRVTITCRASQSISNYLNWYQQKPGKAPKFLIYAASSLQSGAPSRFSGSGSGTDFTLTISSLQPEDFATYYCQQSYSTPITFGQGTRLEIKR
B3: anti-PLA2 mAb 2.23 (antibody, IgG4, V domains shown)
VH: QVQLEESGGGVVQPGRSLRLSCAASGFTFSSYGMHWVRQGPGKGLEWVAVIWYDGSNKKYADSVKGRFTISRDNSKNTLYLQMNSLRAEDTAVYYCARDGPIFGVVMGYWGQGTLVTVSS
VL: B2 VL with A25T, Y36F, K45I, F46L, A58V, Q89H, T94I
B4: anti-PLA2 mAb 1.27 (antibody, IgG2, V domains shown)
VH: EVQLVQSGAEVKKPGESLKISCKGSGYSFTSYWIGWVRQMPGKGLEWMGIIYPGDSDTRYSPSFQGQVTISADKSISTAYLQWSSLKASDTAMYYCARSWTYGMDVWGQGTTVTVSS
VL: EIVLTQSPGTLSLSPGERATLSCRASQSVRSNYLTWYQQKPGQAPRLLIYGASTRATGIPDRFSGSGSGTDFTLTISRLEPEDFAVYYCQQYGSSPLTFGGGTKVEIKR
B5: anti-PLA2 mAb 1.5 (antibody, IgG2, V domains shown)
VH: B4 VH with T30I, S99H, T101S
VL: B4 VL with N32G, T35A, K40R, L47F, T54S
notes: also called 1.5.1
B6: anti-PLA2 mAb 1.7 (antibody, IgG2, V domains shown)
VH: B4 VH with T30I, G103A, M104L, T112A
VL: B4 VL with A25P, I76V
notes: also called 1.7.1
B7: anti-PLA2 mAb 1.21 (antibody, IgG2, V domains shown)
VH: B1 VH with S28R, N31S, N35S, L101E, G102A, Y105I, L111M
VL: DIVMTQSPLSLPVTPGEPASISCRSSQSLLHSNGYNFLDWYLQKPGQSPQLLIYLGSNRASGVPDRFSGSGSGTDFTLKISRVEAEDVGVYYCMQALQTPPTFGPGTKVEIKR
B8: anti-PLA2 mAb 1.14 (antibody, IgG2, V domains shown)
VH: B4 VH with F29I, S99H, W100S, T101G, Y102S, G103S, M104F, V106Y, T112L
VL: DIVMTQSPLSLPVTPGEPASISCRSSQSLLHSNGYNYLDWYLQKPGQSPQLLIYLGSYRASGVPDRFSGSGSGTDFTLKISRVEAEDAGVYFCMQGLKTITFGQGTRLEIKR
B9: anti-PLA2 mAb 2.7 (antibody, IgG4, V domains shown)
VH: GVQLVQSGAEVKKPGESLKISCKGSGYSFTNYWIGWVRQMPGKGLEWMGIIYPGDSDTRYSPSFQGQVTISADKSISTAYLQWSSLKASDTAIYYCARGGVGAFDIWGQGTMVTVSS
VL: EIVLTQSPGTLSLSPGERATLSCRASQIIRRSSLAWYQEKPGQAPRLLIYGASSRATGIPDRFSGSGSGTDFTLTISRLEPEDFAVYYCQQYGSSPPFTFGPGTKVDIKR
notes: also called 2.7.1
B10: anti-PLA2 mAb 2.19 (antibody, IgG4, V domains shown)
VH: QVQLVESGGGVVQPGRSLRLSCAASGFTFSSYGMHWVRQAPGKGLEWVAAIWYDGSNKWYADSVKGRFTISRDNSKNTLYLQMNSLRAEDTAVYYCARGGTGTPGAFDIWGQGTMVTVSS
VL: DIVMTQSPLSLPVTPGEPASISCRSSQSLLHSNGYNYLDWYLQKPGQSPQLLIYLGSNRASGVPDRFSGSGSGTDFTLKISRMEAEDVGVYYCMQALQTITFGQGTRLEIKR
notes: also called 2.19.1

Target: T1, phospholipase A2 (PLA2)
Assay: cell-based or functional assay

Row | Binder | IC50 of inhibition of PLA2 enzyme activity (12-point dose curve) [nM]
1 | B1 | 0.78
2 | B2 | 14.3
3 | B3 | 14.4
4 | B4 | 9.4
5 | B5 | 2.36
6 | B6 | 4.73
7 | B7 | 3.64
8 | B8 | 3.9

Target: T1, phospholipase A2 (PLA2)
Assay: Biacore 2000, captured Ab, global 1:1 fit
Description: (§1) In the immobilization, HBS-P was used as the running buffer; in the binding studies, HBS-P, with 12 mg/mL of each BSA and dextran, was used as sample and running buffers.
Data were normalized based on the individual antibody capture levels and fit globally to a 1:1 interaction model.

Row | Binder | Kd [nM] | koff [s⁻¹] | kon [M⁻¹ s⁻¹]
9 | B1 | 50 | 0.00192 | 38600
10 | B2 | 100 | 0.000902 | 8880
11 | B3 | 120 | 0.000969 | 8270
12 | B4 | 27 | 0.000922 | 34500
13 | B5 | 15 | 0.000713 | 48700
14 | B6 | 9.5 | 0.000451 | 47400
15 | B7 | 11 | 0.00063 | 57100
16 | B8 | 18 | 0.000791 | 43900
17 | B9 | 10 | 0.00104 | 99600
18 | B10 | 6.2 | 0.000115 | 18600

Target: T1, phospholipase A2 (PLA2)
Assay: Biacore 2000, Ab captured from supernatant, 300 nM PLA2
Description: as §1
Briefly, antibody supernatants were diluted 1/10 and antibodies were captured individually on the IgG surfaces. After a one-minute wash step, buffer and PLA2 (300 nM) were injected serially (one-minute association, five minute dissociation) over each surface. Capture levels were measured from −20 to 0 seconds and the surfaces were regenerated with a 6-second pulse of 100 mM H₃PO₄.

Row | Binder | Response [RU]
19 | B1 | 6
20 | B2 | 37
21 | B3 | 7
22 | B4 | 78
23 | B5 | 70
24 | B6 | 118
25 | B7 | 61
26 | B8 | 74
27 | B9 | 126
28 | B10 | 52
